From PMC13334617 (Advanced Science, 2026)

Molecular target: wild-type AC fused to GFP (AC-GFP), encoded by plasmid pAC0-Gfp (GFP: Aequorea victoria (variant not …, UniProt P42212 = GFP))
Test: two-hybrid
Details: partners not purified

B1: CaM fused to the V9A nanobody at its N-terminus and a tetra-cysteine tag at its C-terminus (CaM-V9A), encoded by plasmid pTCam-V9A (VHH)
VHH: DVQLQESGGGSVQAGGSLRLSCAASGDTFSSYSMAWFRQAPGKECELVSNILRDGTTTYAGSVKGRFTISRDDAKNTVYLQMVNLKSEDTARYYCAADSGTQLGYVGAVGLSCLDYVMDYWGKGTQVTVSS
notes: source: E. coli DHM1, expressed in cells from plasmid pTCam-V9A (high expression); not shown: tetra-cysteine tag, C-terminal, kept
cAMP: > 250 nmol/mg | ß gal (Rel. Units): 107 Rel. Units
